Assay: label from the status in PepcDB records
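Further: failed if final PepcDB status was selected cloned or expressed and not failed if soluble or beyond.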

MTKNEEGRVRRFVIRYVGSGRVPPCWIAGIFALCWGGVALAGGVALQSVDFTALPSENFQLRLGFDGPVPEPRSFTTEHPARIALDLAGVRSDLDKKPIPVHQAGVETVQAIAAGGRTRVILNLATAVPYTTRVAGRFLYVTLQSGKAGSRADDSASAPVVVTERPVVGGPQVESIDFRRGEKGEGRLLVALSDPNSLINLREEGRSVVADLPGTSLPGRLARRLEVIDFATPVKWVEAMPVGRGARLLITPVSDEYDYSSYQSGKLLTVELRPLSRAEKEEAKKRRLVFAGERLSLNFQDIPVRNVLQILADFTNLNIVASDSVQGSVTLRLNEVPWDEALDLVLKAKGLGKRQEANSNVIRVAPLDEINRSERDELEALKVVEDLEPLRTEIIQINYTKADDIKKVIMGTTEKAEKAITRPEALTGGPGVTSTEAYDVTQSILSSRGNVTTDPRTNQLIVQDTPRNLERIRDLVRQLDKPVRQVMIESRVVIANVDFLRELGAKLDFRPKNLTAAERLNPTGSMADLGVDLAKLTTLSPYGTAQYVVSMGDYLLDLELSAAQKEGRGEIVANPRVLTADQSKAKIMQGVELPYQITQQGTGGGIPVQNVAFKPAVLELDVTPHITPDDHILMDLMVKKDDKGELAPNGNFAIEKREIDTVAQVANGETVVLGGVYEGTRRNNTDKVPFFGDLPGIGFMFRRNAVEDRKKELLIFITPKIVKQTSMTP
protein production: failed

MHIKIDDLTGRQVVSLVNEHLHSMTLMSPPESIHALGLEKLRGPEITFWSAWEGDELAGCGALKELDTRHGEIKSMRTSASHLRKGVAKQVLQHIIEEAEKRGYERLSLETGSMASFEPARKLYESFGFQYCEPFADYGEDPNSVFMTKKLLEHHHHHH
protein production: not failed

MVIPFISGTLCQFQLSRWLITQAPALPCGPKLGAPTRQRRGCKVAQLWMYFLALAVVYLLPGPDMILLLQTGARQGKAQALATALGLALSRGCHVALAALGLAALFKAAPWTFDLVRLAGAAYLLWIGIQCLRANLLPNLEPGTAAATPLRWREAIQRGLLTNLLNPKALLFCSVLLPQFVDPQAGAVVPQFMTLGVLLVAVGGLFDCCYALAGAGLGRWMQRSPSAQRVQQWLFGSLLIGFALRLTFVQQA
protein production: failed

MKAKAILLASVLLVGCQTSQNTGNVQQHAQSLSAAGQGEAGKFTSQARWMDDGTSIAPDQDLWAFIGDELKMGIPENSRIREQKQKYLRNKSYLHDVTLRAEPYMYWIAGQVKKRNMPMELVLLPIVESAFDPHATSGANAAGIWQIIPSTGRNYGLKQTRNYDARRDVVASTTAALDMMQRLNKMFDGDWLLTVAAYNSGEGRVMRAIKANKARGKPTDFWSLSLPRETKLYVPKMLALSEILKNSKRYGVRLPTTDESRALARVRLNSPVEMAQVADMAGMSISKLKTFNAGVKGSTLGVSGPQYVMVPKKHAEQLRESLASGEIDAVQSQLIADNTPLNSRSYKVRSGDTLSGIASRLGVSTKDLQQWNNLRGSRLKIGQSLTVGAGSSAQRLANNSDSITYRVRKGDSLSSIARRHGVNIKDVMRWNHDTDNLQPGDQLTLFVKDNSTPDSLEHHHHHH
protein production: not failed

MWQNFYLTTLKLSQYTQEEKPILPADNMDPRALASVHAWEHGDFMCKGYIQSRLSDPLYNVYSNVETSNELWDSLDKKYQTKDAGSQKYAAAKFLDYKMVDSRPMMVQVEELTCLFHDI
protein production: not failed

MSAVFSGGLTQAGGMSSTETVDSSAVSSGTISDYVEAMGPSWIAGAIAAGPATIASLVTAGGAFGYSLLWVVVLSAGAGALAQYLAMRLGLLTERGIVAVVEDHLGETWAWLLVGDAVLAAGVAQLVIMKTVATVSATVTGIDARIWGVVWALILAAGLAGGGYRFLELAAKILVLLVVVAFVASLFVVPIDAGAAVAGLVPSVPSGSALVAAGILGGAVHITLITMHSYTMRARGWTREDYDLATVDVGASMLVAFGIYSLAIFLVTASVLTSGDLTTVGAAEALGPLVGDSARWLFLLGLWGAAVSTLGGNTIVPPFLLADKLGWGTTIEDNRYRGLLAAVALLSAPGAFIGGNVLGQLVLVLALGTVGTPFAIALVLYLLNSAAVPESNSLLANVGGLALIAVSGGLAANFVVEQLGGGVGPLSGFVLAFAIALGLAMAGLGGKFLREELLA
protein production: failed

MSRSFFAVLRDGKRYADKWPHHSVVAAMAESRIIPITRKAISWTPGIAVLNAALTWQFMPQEQLAPGLMLSLIMLSLPLQGLYWLGWRSRQPLKPMLRNWYKELRDKLRKQGVECQPQGEKGPEYMDLAIILRKALETLPPEEH
protein production: failed

MLIPQQKELNSISLLAEVSRTVTNENDISKVLRIVLFIMSEHLDMLRGMITILNRETGEITTNESFGLTEEEMERGRYRIGEGIIGQVVKTGKPFIVPNIGDEPLFLDRTRSRQKTKKENLCFICIPIRSGAEIIGTLSADRQLEPSLLKESGKRMKAEDERMDLLQHYVDLLSIIASMISQAVRLKQIAHEATAGIAVVEHKPQQEK
protein production: failed

MSTATLSGQSPSAQRRPMTREERRVIFASSLGTVFEWYDFYLYGSLAAIIAQHFFSGVNPTAAFIFALLAFAAGFAVRPFGALVFGRLGDLVGRKYTFLITIVIMGLSTFLVGVLPSYASIGIAAPAILIILRLLQGLALGGEYGGAATYVAEHAPHGRRGFYTSWIQTTATLGLFLSLLVILGVRTFMGEEAFKDWGWRIPFLISVVLLGISVWIRLQLNESPTFKRMKEEGKGSKAPIAESFGQWRNLKVVILALLGLTAGQAVVWYTGQFYALFFLTQSLKIDSNTANIMIAIALLVGTPFFVLFGALSDRIGRKPIIMAGCLIAALTYFPIFKGLTHYANPALEKAQATAPVTVIADPATCSFQFNPVGTASFTSSCDVVKSFMARNSVNYENQSAAAGSVAKVMIGNDEFASFDGKGLAPAEFKTKATELDKALTAAIRSHGYPAKADPAQTNYFMVVVLLTLLVIYVTMVYGPIAAMLVEMFPTRIRYTSMSLPYHIGNGWFGGFLPPVAFAVVAATGNIYDGLWYPIIIAVMTLVIGTLFVRETKDNDINA
protein production: not failed

MQKVVLATGNVGKVRELASLLSDFGLDIVAQTDLGVDSAEETGLTFIENAILKARHAAKVTALPAIADDSGLAVDVLGGAPGIYSARYSGEDATDQKNLQKLLETMKDVPDDQRQARFHCVLVYLRHAEDPTPLVCHGSWPGVITREPAGTGGFGYDPIFFVPSEGKTAAELTREEKSAISHRGQALKLLLDALRNG
protein production: not failed

MPDLPLAPEALDLSPAFLEVAACPACHSRFALDFDSGELVCSSPSCGLAFLVRDGVPDLRLDAARKRETGQGVTAEDTEAFEPTHRHEMRPQ
protein production: failed

MATVEEIEKYCRNCVSRDFVNGKGLVCKRTRELPDFDEECENFEKDEELLKMAPPKPDDFPVSMTEEELLAEENLPKGVLYASVACILGAVAWSLISVSTGLQMGYMAIGVGFLVGFAMRQGKGIRPVFGLLGAALALISCVLGDFLSIIGFAAKDYDMTFFEVLAGVDYGEIFSVMVKNVVSMSALFYGIAVYEGYKLSFRAQKHPVGGKI
protein production: failed

MDRRVTRRGVLAAAGIALAGCTDNGDDQPVRTPLPDEEREPLSNTWRSLGRDDGNTGAVAGIAGPYIEVAAEWQFDVGGAVIGGPVFDENTLYAGTADGEVYALDTHVGAERWSFSADGPVSTTPVVDDGLVAVGSSDGHIYGIDADDGTELWRFDTAVRVDSSPAIDDRYVYAGSVSNAAYAIDRTNGELHWRFDADGSVLASPAVGDETVYVASTDHNVYAIDPDSGEADWQFTTGGEISVAPTLVGDRLYVGSRDSSVYAIDTGSGEGRWSFGLEAAVASSPAVLGDRLFVGAADHNLYALGIGDDSPEGLWRSPTPGAAVGNPAVTDDHVFFGGRDGAVRALRTDGGDRSWEHDVDGGIQGGPALTDRWLYVGTDAGTVYAFRAG
protein production: failed

MSLADTVRMGTEGAYPPYNFINDAGEVDGFERELGDELCKRAGLTCEWVKNDWDSIIPNLVSGNYDTIIAGMSITDERDEVIDFTQNYIPPTASSYVATSDGADLSGIVAAQTATIQAGYIAESGATLVEFATPEETIAAVRNGEADAVFADRDYLVPIVAESGGELMFVGDDVPLGGGVGMGLRESDGELRGKFDAAITSMKEDGTLNTMIKKWFGEDAAVYEEGHHHHHH
protein production: not failed

MSAPRLPVTVLTGFLGAGKTTLLSKLLENNKQRRLAILVNEFGEVSIDGGLLRDGENQGVEIHDLANGLVAYDDDADFLPTMLALWQRRQQIDHVLIETSGLALPSAVMAQLQSEALAPYFVLDATLAVVDTPLLLAGHFAPAGDGGKTDAVAALFDQQLGHADIVVLNKIDALSADQLLAAEEAVRKQAPSIRFIELAYEAKLDTRLTLGLHLHEASPAAHRHYGPVASMPGLAMRPLANQTLLDGHSHGGQAAHSHGLATHKHFHEQDPGWQSFMIRSKEPQCADKLAAALQAIAREEPLLRIKGFAACADSPGRLLAQGVRSRIELSRDDTLAAPRQAQLVFIGYHPSRPRVVALLRDITGAHWSLEHHHHHH
protein production: failed

MPFTVTIEVSKQFETSTLPEKVFALLSDVPRSASYFPDVEKLEPLGSNAFRWIMEKNAIGGHTLKQTIYACTYRSDRVTMSVAWVPVEGEGNARVEGNWQIEFAFIQKIDRYISNLKETFAK
protein production: failed

MVSDADASTSSSSIDIMPSANIQNDVPEPSVHTSHRRTRKPAYLQDYYCHSVASLTIHDISQFLSYEKVSPLYHSFLVCIAKAKEPSTYNEAKEFLVWCGAMDDEIGAMETTHTWEICTLPPNKKPIGCKWVYKIKYNSDGTIERYKARLVAKGYTQQEGIDFIETFSPVCKLTSVKLILAISAIYNFTLHQLDISNAFLNGDLDEEIYMKLPPGYAARQGDSLPPNAVCYLKKSIYGLKQASRQWFLKFSVTLIGFGFVQSHSDHTYFLKITATLFLCVLVYVDDIIICSNNDAAVDELKSQLKSCFKLRDLGPLKYFLGLEIARSAAGINICQRKYALDLLDETGLLGCKPSSVPMDPSVTFSAHSGGDFVDAKAYRRLIGRLMYLQITRLDISFAVNKLSQFSEAPRLAHQQAVMKILHYIKGTVGQGLFYSSQAEMQLQVFSDASFQSCKDTRRSTNGYCMFLGTSLISWKSKKQQVVSKSSAEAEYRALSFATDEMMWLAQFFRELQLPLSKPTLLFCDNTAAIHIATNAVFHERTKHIESDCHSVRERSVYQATLSYSFQAYDEQDGFTEYLSPILRGTIMYIVSMFGLAGLEALICFIFLFLFSFLTSFKASAQNPFYLNHDCPNRTTYSSNSTYSTNLKTLLSSFASRNASYSTGFQNIRAGQTPDRVTGLFLCRGDLSPEVCSNCVAFSVNESLTRCPNQREAVFYYEECILRYSHKNFLSTVTYEGELIMRNPNNISSIQNQRDQFIDLVQSNMNQAANEAANSSRKFSTIKTELTSLQTLYGLVQCTPDLARQDCFSCLTSSINRMMPLFRIGARQFWPSCNSRYELYAFYNETAIGTPSPPPLFPGSTPPLTSPSIPGKSGNSTVLVVAIVVLAVLLFIALVGYCFLAQRTKKTFDTASASEVGDDMATADSLQLDYRTIQTATNDFAESNKIGRGGFGEVYKGTFSNGKEVAVKRLSKNSRQGEAEFKTEVVVVAKLQHRNLVRLLGFSLQGEERILVYEYMPNKSLDCLLFDPTKQTQLDWMQRYNIIGGIARGILYLHQDSRLTIIHRDLKASNILLDADINPKIADFGMARIFGLDQTQDNTSRIVGTYGYMAPEYAMHGQFSMKSDVYSFGVLVLEIISGRKNSSFDESDGAQDLLTHTWRLWTNRTALDLVDPLIANNCQNSEVVRCIHIGLLCVQEDPAKRPTISTVFMMLTSNTVTLPVPRQPGFFIQSSPVKDPTDSDQSTTTKSTPASIDDELITDLYPR
protein production: failed

MNDNVLRYIKRVFNLITILGFVATIVGGIYLWRLGAFQNQAVLQQLIVAHRFLGPLIFLCMQILQVIVPIIPGGITMAAGVMIFGPVWGFVYNYFGIVAGSFLLFHFGKKYGSSLAKTFVKEKTYNKYMAWLDKGQKRFNIVFALLILSPIAPDDALVLIASQTKMSWKFFTWSILLCKPLPILLYSYLLIFGGDLLGHIL
protein production: failed

MEIFKPDYLMIDSMIFFPTLILSFLIKRNYVKLLKSIGIVSPIYLFWDFLATWRNSWTFNPKYVAGIYVIDLPIEEVMFFLVTPFATLLIFDFVMGKVRDKEVKWVPKVVCVAIPLLLLTLPFVYNYSYTFIDLVYLIMSLIVSLLIGRNLLASRNFWIFMGLSYIPFLVFDYFLTSDPVVIYGSHSIVGIRFITIPIEDFIYSFSMITFYTVFYIRGNSLWMKQK
protein production: failed

From a protein production outcome set (Wang et al. 2014)
